US20190388471A1 (published 2019)
Numbering of substitutions follows the chain as printed.

T1: human CD19 (full length, expressed on cells) (human, UniProt P15391 20-556)
T1 construct: whole, on cells; The functional assays used K562 cells transduced to express CD19; also called hsCD19; hCD19
T1 sequence (looked up): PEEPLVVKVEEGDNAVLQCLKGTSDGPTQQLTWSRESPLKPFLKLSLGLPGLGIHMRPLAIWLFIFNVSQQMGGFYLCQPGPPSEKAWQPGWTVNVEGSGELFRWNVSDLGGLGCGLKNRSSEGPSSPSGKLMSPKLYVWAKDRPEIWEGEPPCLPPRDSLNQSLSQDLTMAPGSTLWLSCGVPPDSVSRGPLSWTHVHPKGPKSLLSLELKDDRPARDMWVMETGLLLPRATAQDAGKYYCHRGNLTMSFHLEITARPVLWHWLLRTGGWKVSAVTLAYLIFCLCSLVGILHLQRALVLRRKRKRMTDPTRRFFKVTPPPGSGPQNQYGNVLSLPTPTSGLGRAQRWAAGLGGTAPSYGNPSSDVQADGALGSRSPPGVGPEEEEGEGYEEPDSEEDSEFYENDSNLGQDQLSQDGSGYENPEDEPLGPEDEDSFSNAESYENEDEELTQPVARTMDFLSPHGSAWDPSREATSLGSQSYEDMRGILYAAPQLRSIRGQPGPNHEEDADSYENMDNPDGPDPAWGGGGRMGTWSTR

B1: 103101 CAR1 Soluble scFv (scFv)
scFv: EIVMTQSPATLSLSPGERATLSCRASQDISKYLNWYQQKPGQAPRLLIYHTSRLHSGIPARFSGSGSGTDYTLTISSLQPEDFAVYFCQQGNTLPYTFGQGTKLEIKGGGGSGGGGSGGGGSQVQLQESGPGLVKPSETLSLTCTVSGVSLPDYGVSWIRQPPGKGLEWIGVIWGSETTYYSSSLKSRVTISKDNSKNQVSLKLSSVTAADTAVYYCAKHYYYGGSYAMDYWGQGTLVTVSSHHHHHHHH
notes: It is built here as scFv domain plus His tag; also called CAR1 scFv; humanized scFv
B2: 103101 CAR11 Soluble scFv (scFv)
scFv: B1 scFv with S182N
notes: The clone number 103101 is printed for both CAR1 and CAR11; also called CAR11 scFv; 103101-WT (S/N)
B3: 103102 CAR2 Soluble scFv (scFv)
scFv: B1 scFv with S182Q
notes: also called CAR2 scFv; humanized scFv
B4: 99789 CAR5 Soluble scFv (scFv)
scFv: EIVMTQSPATLSLSPGERATLSCRASQDISKYLNWYQQKPGQAPRLLIYHTSRLHSGIPARFSGSGSGTDYTLTISSLQPEDFAVYFCQQGNTLPYTFGQGTKLEIKGGGGSGGGGSGGGGSGGGGSQVQLQESGPGLVKPSETLSLTCTVSGVSLPDYGVSWIRQPPGKGLEWIGVIWGSETTYYSSSLKSRVTISKDNSKNQVSLKLSSVTAADTAVYYCAKHYYYGGSYAMDYWGQGTLVTVSSHHHHHHHH
notes: also called CAR5 scFv; humanized scFv
B5: 99789 CAR9 Soluble scFv (scFv)
scFv: B4 scFv with S187N
notes: The clone number 99789 is printed for both CAR5 and CAR9; also called CAR9 scFv; humanized scFv
B6: 99790 CAR6 Soluble scFv (scFv)
scFv: B4 scFv with S187Q
notes: also called CAR6 scFv; humanized scFv
B7: 103104 CAR 3 Soluble scFv (scFv)
scFv: QVQLQESGPGLVKPSETLSLTCTVSGVSLPDYGVSWIRQPPGKGLEWIGVIWGSETTYYSSSLKSRVTISKDNSKNQVSLKLSSVTAADTAVYYCAKHYYYGGSYAMDYWGQGTLVTVSSGGGGSGGGGSGGGGSEIVMTQSPATLSLSPGERATLSCRASQDISKYLNWYQQKPGQAPRLLIYHTSRLHSGIPARFSGSGSGTDYTLTISSLQPEDFAVYFCQQGNTLPYTFGQGTKLEIKHHHHHHHH
notes: also called CAR3 scFv; humanized scFv
B8: 103104 CAR12 Soluble scFv (scFv)
scFv: B7 scFv with S60N
notes: The clone number 103104 is printed for both CAR3 and CAR12; also called CAR12 scFv; humanized scFv
B9: 103106 CAR4 Soluble scFv (scFv)
scFv: B7 scFv with S60Q
notes: also called CAR4 scFv; humanized scFv
B10: 100796 CAR7 Soluble scFv (scFv)
scFv: QVQLQESGPGLVKPSETLSLTCTVSGVSLPDYGVSWIRQPPGKGLEWIGVIWGSETTYYSSSLKSRVTISKDNSKNQVSLKLSSVTAADTAVYYCAKHYYYGGSYAMDYWGQGTLVTVSSGGGGSGGGGSGGGGSGGGGSEIVMTQSPATLSLSPGERATLSCRASQDISKYLNWYQQKPGQAPRLLIYHTSRLHSGIPARFSGSGSGTDYTLTISSLQPEDFAVYFCQQGNTLPYTFGQGTKLEIKHHHHHHHH
notes: also called CAR7 scFv; humanized scFv
B11: 100798 CAR8 Soluble scFv (scFv)
scFv: B10 scFv with S60Q
notes: also called CAR8 scFv; humanized scFv
B12: 100796 CAR10 Soluble scFv (scFv)
scFv: B10 scFv with S60N
notes: The clone number 100796 is printed for both CAR7 and CAR10; also called CAR10 scFv; humanized scFv

The binders below were run against T1, human CD19 (full length, expressed on …) (assay: flow cytometry; His-tagged soluble scFv on mouse cell line 300 expressing hCD19).
Method: Mouse cell line 300.CD19 were grown in RPMI 1640 with 0.5 mg/ml Zeocin. Around 5e5 cells/per well were transferred to the BD Falcon 96 well plate. The cells were spin down at 900 rpm (Sorval Legend XT centrifuge) for 3 minutes. The supernatant were removed. Anti-CD19 scFv protein samples were diluted in DPBS with 5% FBS. The samples were added into the wells, mixed well with the cells and incubated for 1 hour. The cells were washed twice in the DPBS with 5% FBS. The cells were incubated with antipoly His PE (R&D) for 1 hour, washed twice before FACS analysis (LSRII from BD Biosciences).

Binding result, binds:
B1, B2, B3, B4, B5, B6, B7, B8, B9, B10, B11, B12
